# Laboratory results as given in US7786083B2, “Metastin derivatives and use thereof” (Takeda Pharmaceutical Company Limited, priority 2006, dated 2010).
# *1 amine or outer side, *2 acyl side, *3 side chain or, on linkers, in order; H or OH if unused. [ ]: non-standard residue; d: D form. Ser(Me) = O-methylserine, COC[C@H](N[*:1])C(=O)[*:2]; 2Nal = N[C@@H](Cc1ccc2ccccc2c1)C(=O)O; Arg(Me) = CNC(=N)NCCC[C@H](N)C(=O)O; Dap(CONH2) = NC(=O)NC[C@H](N)C(=O)O; Ala(cPr) = N[C@@H](CC1CC1)C(=O)O; Hyp = O=C(O)[C@@H]1C[C@@H](O)CN1; Aad = N[C@@H](CCCC(=O)O)C(=O)O; Cha = N[C@@H](CC1CCCCC1)C(=O)O; Cit = NC(=O)NCCC[C@H](N)C(=O)O; Nva = CCC[C@H](N)C(=O)O; Abu = CC[C@H](N)C(=O)O; Aib = CC(C)(N)C(=O)O
# Target: metastin receptor (OT7T175) stably expressed on CHO/dhfr- cells (human or rat, not given)
# Experiment: cell-based or functional assay
row,Binder,"Specific Activity (EC50 of test compound based on EC50 of Metastin (45-54)); agonist activity, intracellular calcium ion level, FLIPR (ratio to Metastin (45-54))"
1,"Ac-[dY]ENT[Cha]G[Nva][Arg(Me)]W-NH2 [des(1)-Ac-[D-Tyr2,Glu3,Thr5,Cha6,Nva8,Arg(Me)9,Trp10]MS10]",0.4
2,"Ac-[dY][Hyp][Cit]T[Cha]GL[Arg(Me)]W-NH2 (also: Gly6-Leu7 -CONH- replaced by (E)-CH=CH-) [des(1)-Ac-[D-Tyr2,Hyp3,Cit4,Thr5,Cha6,Gly7Ψ((E)CH═CH)Leu8,Arg(Me)9,Trp10]MS10]",0.9
3,"Ac-[dY][Hyp]QT[Cha]GL[Arg(Me)]W-NH2 (also: Gly6-Leu7 -CONH- replaced by (E)-CH=CH-) [des(1)-Ac-[D-Tyr2,Hyp3,Gln4,Thr5,Cha6,Gly7Ψ((E)CH═CH)Leu8,Arg(Me)9,Trp10]MS10]",1.4
4,"Ac-[dY]ENTFGL[Arg(Me)]W-NH2 (also: Gly6-Leu7 -CONH- replaced by (E) type alkene) [des(1)-Ac-[D-Tyr2,Glu3,Thr5,Gly7Ψ((E)CH═CH)Leu8,Arg(Me)9,Trp10]MS10]",0.6
5,"Ac-[dY][Hyp]NTFG[Ala(cPr)][Arg(Me)]W-NH2 [des(1)-Ac-[D-Tyr2,Hyp3,Thr5,Ala(cPr)8,Arg(Me)9,Trp10]MS10]",0.8
6,"Ac-[dY][Hyp]NT[Cha]GL[Arg(Me)]W-NH2 (SMILES CNC(=N)NCCC[C@H](NC(=O)[C@H](CC(C)C)NC(=O)CNC(=O)[C@H](CC1CCCCC1)NC(=O)[C@@H](NC(=O)[C@H](CC(N)=O)NC(=O)[C@@H]1C[C@@H](O)CN1C(=O)[C@@H](Cc1ccc(O)cc1)NC(C)=O)[C@@H](C)O)C(=O)N[C@@H](Cc1c[nH]c2ccccc12)C(N)=O) [des(1)-Ac-[D-Tyr2,Hyp3,Thr5,Cha6,Arg(Me)9,Trp10]MS10]",0.3
7,"Ac-[dY][Hyp]NTF[Abu]L[Arg(Me)]W-NH2 [des(1)-Ac-[D-Tyr2,Hyp3,Thr5,Abu7,Arg(Me)9,Trp10]MS10]",1
8,"Ac-[dY][Hyp]ET[Cha]GL[Arg(Me)]W-NH2 (also: Gly6-Leu7 -CONH- replaced by (E)-CH=CH-) [des(1)-Ac-[D-Tyr2,Hyp3,Glu4,Thr5,Cha6,Gly7Ψ((E)CH═CH)Leu8,Arg(Me)9,Trp10]MS10]",4.6
9,"Ac-[dY]DNT[Cha]G[Ala(cPr)][Arg(Me)]W-NH2 [des(1)-Ac-[D-Tyr2,Asp3,Thr5,Cha6,Ala(cPr)8,Arg(Me)9,Trp10]MS10]",2.5
10,"Ac-[dY]E[Dap(CONH2)]TFGL[Arg(Me)]W-NH2 (also: Gly6-Leu7 -CONH- replaced by (E) type alkene) [des(1)-Ac-[D-Tyr2,Glu3,Alb4,Thr5,Gly7Ψ((E)CH═CH)Leu8,Arg(Me)9,Trp10]MS10]",0.5
11,"Ac-[dY][Hyp]NTF[Aib]L[Arg(Me)]W-NH2 [des(1)-Ac-[D-Tyr2,Hyp3,Thr5,Aib7,Arg(Me)9,Trp10]MS10]",1.5
12,"Ac-[dY][Aad]NT[Cha]G[Ala(cPr)][Arg(Me)]W-NH2 [des(1)-Ac-[D-Tyr2,Aad3,Thr5,Cha6,Ala(cPr)8,Arg(Me)9,Trp10]MS10]",1.1
13,"Ac-[dY][Hyp][Dap(CONH2)]T[Cha]GLRW-NH2 (also: Gly6-Leu7 -CONH- replaced by (E)-CH=CH-) [des(1)-Ac-[D-Tyr2,Hyp3,Alb4,Thr5,Cha6,Gly7Ψ((E)CH═CH)Leu8,Trp10]MS10]",0.5
14,"Ac-[dY]ENT[Cha]G[Ser(Me)][Arg(Me)]W-NH2 [des(1)-Ac-[D-Tyr2,Glu3,Thr5,Cha6,Ser(Me)8,Arg(Me)9,Trp10]MS10]",0.5
15,"Ac-[dY][Aib]NT[Cha]G[Ala(cPr)][Arg(Me)]W-NH2 [des(1)-Ac-[D-Tyr2,Aib3,Thr5,Cha6,Ala(cPr)8,Arg(Me)9,Trp10]MS10]",0.6

# The remaining lines, values ahead:
row,"Specific Activity (EC50 of test compound based on EC50 of Metastin (45-54)); agonist activity, intracellular calcium ion level, FLIPR (ratio to Metastin (45-54))",Binder
1,0.4,"Ac-[dY][Hyp]NTFGLRW-NH2 (also: Gly6-Leu7 -CONH- replaced by (E) CH=CH) [des(1)-Ac-[D-Tyr2,Hyp3,Thr5,Gly7Ψ((E)CH═CH)Leu8,Trp10]MS10]"
2,1.2,"Ac-[dY][Hyp]NTFGL[Arg(Me)]W-NH2 (also: Gly6-Leu7 -CONH- replaced by -CH2S-) [des(1)-Ac-[D-Tyr2,Hyp3,Thr5,Gly7Ψ(CH2S)Leu8,Arg(Me)9,Trp10]MS10]"
3,0.5,"Ac-[dY][Hyp]NT[Cha]G[Ser(Me)][Arg(Me)]W-NH2 (SMILES CNC(=N)NCCC[C@H](NC(=O)[C@H](COC)NC(=O)CNC(=O)[C@H](CC1CCCCC1)NC(=O)[C@@H](NC(=O)[C@H](CC(N)=O)NC(=O)[C@@H]1C[C@@H](O)CN1C(=O)[C@@H](Cc1ccc(O)cc1)NC(C)=O)[C@@H](C)O)C(=O)N[C@@H](Cc1c[nH]c2ccccc12)C(N)=O) [des(1)-Ac-[D-Tyr2,Hyp3,Thr5,Cha6,Ser(Me)8,Arg(Me)9,Trp10]MS10]"
4,0.8,"Ac-[dY][Hyp]NTFG[Ser(Me)][Arg(Me)]W-NH2 [des(1)-Ac-[D-Tyr2,Hyp3,Thr5,Ser(Me)8,Arg(Me)9,Trp10]MS10]"
5,0.7,"Ac-[dY][Hyp]NTFG[Nva][Arg(Me)]W-NH2 [des(1)-Ac-[D-Tyr2,Hyp3,Thr5,Nva8,Arg(Me)9,Trp10]MS10]"
6,0.6,"Ac-[dY][Hyp]NT[Cha]GLRW-NH2 (also: Gly6-Leu7 -CONH- replaced by (E) CH=CH) [des(1)-Ac-[D-Tyr2,Hyp3,Thr5,Cha6,Gly7Ψ((E)CH═CH)Leu8,Trp10]MS10]"
7,0.7,"Ac-[dY]KNT[Cha]G[Ala(cPr)][Arg(Me)]W-NH2 (also: classed as cyclised or stapled) [des(1)-Ac-[D-Tyr2,Lys3,Thr5,Cha6,Ala(cPr)8,Arg(Me)9,Trp10]MS10]"
8,1,"Ac-[dY][Hyp]NT[2Nal]GL[Arg(Me)]W-NH2 (not fully specified (residue 7); printed as Ac-D-Tyr-Hyp-Asn-Thr-Nal(2)-Gly-Ala(cPr)-Arg(Me)-Trp-NH2) [des(1)-Ac-[D-Tyr2,Hyp3,Thr5,Nal(2)6,Arg(Me)9,Trp10]MS10]"
9,0.5,"Ac-[dY][Hyp]NT[Cha]G[Nva][Arg(Me)]W-NH2 (SMILES CCC[C@H](NC(=O)CNC(=O)[C@H](CC1CCCCC1)NC(=O)[C@@H](NC(=O)[C@H](CC(N)=O)NC(=O)[C@@H]1C[C@@H](O)CN1C(=O)[C@@H](Cc1ccc(O)cc1)NC(C)=O)[C@@H](C)O)C(=O)N[C@@H](CCCNC(=N)NC)C(=O)N[C@@H](Cc1c[nH]c2ccccc12)C(N)=O) [des(1)-Ac-[D-Tyr2,Hyp3,Thr5,Cha6,Nva8,Arg(Me)9,Trp10]MS10]"
